Measured values taken from patent US7118889 (US Dept. of Health and Human Services, dated 2006).

Columns and labels:
[1] = target: T1, p85 subunit of PI3K, endogenous, Jurkat T cells (human, UniProt P27986 2-724); assay: anti-myc immunoprecipitation from C305-stimulated stable Jurkat transfectants, immunoblot
T1 construct: mature; also called p85 subunit of PI-3 kinase
Procedure: (§1) Exogenous LAT was immunoprecipitated with anti-myc antibody from cells either left unstimulated or stimulated with C305 (1:50). Samples were analyzed on SDS-PAGE and blotted with 4G10. The same membrane was also blotted with anti-PLC-γ1, anti-p85, anti-Grb2, anti-SOS, and anti-LAT after stripping.
(§2) Myc-tagged LAT was immunoprecipitated with anti-myc antibody from unstimulated or C305 stimulated transfectants. […] The myc-tagged LAT appears as a doublet as does endogenous LAT. […] In addition, mutations at Y171 and Y191 prevented the association of SLP-76, Vav and Cbl, but the 70 kDa tyrosine-phosphorylated protein remained associated with LAT. […] The association with SOS was also disrupted by the double Y to F mutations.

[2] = target: T2, Cbl, endogenous, Jurkat T cells (human, UniProt P22681 1-906, tyrosine phosphorylated in stimulated cells); assay: as above
T2 construct: also called Cbl (120 kD); c-cbl
Procedure: as §1, §2

[3] = target: T3, Vav, endogenous, Jurkat T cells (human, UniProt P15498 1-845, tyrosine phosphorylated in stimulated cells); assay: as above
T3 construct: also called Vav (100 kD)
T3 sequence (looked up): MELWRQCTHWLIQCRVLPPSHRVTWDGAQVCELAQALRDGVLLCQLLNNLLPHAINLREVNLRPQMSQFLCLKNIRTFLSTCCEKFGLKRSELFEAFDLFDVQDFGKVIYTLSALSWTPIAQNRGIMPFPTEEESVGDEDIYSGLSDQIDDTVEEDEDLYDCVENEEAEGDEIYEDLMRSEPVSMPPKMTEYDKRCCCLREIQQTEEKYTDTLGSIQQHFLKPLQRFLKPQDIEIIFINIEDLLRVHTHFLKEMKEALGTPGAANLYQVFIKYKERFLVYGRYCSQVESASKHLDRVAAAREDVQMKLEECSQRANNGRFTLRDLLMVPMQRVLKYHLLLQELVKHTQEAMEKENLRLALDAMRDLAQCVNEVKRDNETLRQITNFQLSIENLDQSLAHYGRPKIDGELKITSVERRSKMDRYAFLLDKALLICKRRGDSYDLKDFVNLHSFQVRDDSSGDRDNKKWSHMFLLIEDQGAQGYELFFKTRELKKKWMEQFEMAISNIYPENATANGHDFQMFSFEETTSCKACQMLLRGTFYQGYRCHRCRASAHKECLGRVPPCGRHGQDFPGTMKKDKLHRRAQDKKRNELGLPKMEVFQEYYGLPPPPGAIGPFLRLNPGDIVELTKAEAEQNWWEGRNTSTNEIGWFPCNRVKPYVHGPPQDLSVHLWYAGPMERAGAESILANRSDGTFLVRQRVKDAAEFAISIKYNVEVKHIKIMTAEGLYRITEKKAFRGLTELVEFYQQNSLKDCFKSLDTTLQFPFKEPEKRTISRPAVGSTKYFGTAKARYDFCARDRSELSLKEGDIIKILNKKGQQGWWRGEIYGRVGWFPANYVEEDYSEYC
Procedure: as §1, §2

[4] = target: T4, SLP-76, endogenous, Jurkat T cells (human, UniProt Q13094 1-533, tyrosine phosphorylated in stimulated cells); assay: as above
T4 construct: mature; also called 76 kD protein; SH2-domain Leukocyte Protein
T4 sequence (looked up): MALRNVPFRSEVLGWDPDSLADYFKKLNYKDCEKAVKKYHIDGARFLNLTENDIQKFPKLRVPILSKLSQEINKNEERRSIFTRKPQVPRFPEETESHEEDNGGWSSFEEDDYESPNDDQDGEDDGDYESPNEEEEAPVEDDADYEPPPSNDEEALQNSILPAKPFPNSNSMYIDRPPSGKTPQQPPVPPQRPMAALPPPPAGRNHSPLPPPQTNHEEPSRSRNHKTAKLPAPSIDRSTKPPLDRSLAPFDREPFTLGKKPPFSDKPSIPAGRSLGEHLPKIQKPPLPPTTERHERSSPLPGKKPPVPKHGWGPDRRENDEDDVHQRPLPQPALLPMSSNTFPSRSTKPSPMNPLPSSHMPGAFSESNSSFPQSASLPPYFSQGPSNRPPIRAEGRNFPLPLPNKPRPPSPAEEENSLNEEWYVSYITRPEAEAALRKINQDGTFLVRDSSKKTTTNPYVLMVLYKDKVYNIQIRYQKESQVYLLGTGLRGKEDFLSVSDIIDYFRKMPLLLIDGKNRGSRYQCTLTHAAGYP
Procedure: as §1, §2

[5] = target: T5, Grb2, endogenous (293T cells and Jurkat T cells) (human, UniProt P62993 1-217); assay: as above
T5 construct: Endogenous protein of human cell lines; also called endogenous Grb2; Grb2 linker protein
T5 sequence (P62993 whole entry): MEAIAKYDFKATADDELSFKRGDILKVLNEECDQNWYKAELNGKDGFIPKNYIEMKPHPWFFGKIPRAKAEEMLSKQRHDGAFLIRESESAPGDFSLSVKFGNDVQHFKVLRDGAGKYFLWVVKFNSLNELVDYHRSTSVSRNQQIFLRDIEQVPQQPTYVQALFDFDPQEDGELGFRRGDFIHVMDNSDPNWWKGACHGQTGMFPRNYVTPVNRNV
Procedure: as §1, §2

[6] = target: Lck protein tyrosine kinase (transfected in 293T cells) (UniProt P06239 2-509, limits assumed); assay: co-immunoprecipitation from transfected 293T cells
Chain of Lck protein tyrosine kinase (transfected in 293T cells) (P06239 2-509 limits assumed): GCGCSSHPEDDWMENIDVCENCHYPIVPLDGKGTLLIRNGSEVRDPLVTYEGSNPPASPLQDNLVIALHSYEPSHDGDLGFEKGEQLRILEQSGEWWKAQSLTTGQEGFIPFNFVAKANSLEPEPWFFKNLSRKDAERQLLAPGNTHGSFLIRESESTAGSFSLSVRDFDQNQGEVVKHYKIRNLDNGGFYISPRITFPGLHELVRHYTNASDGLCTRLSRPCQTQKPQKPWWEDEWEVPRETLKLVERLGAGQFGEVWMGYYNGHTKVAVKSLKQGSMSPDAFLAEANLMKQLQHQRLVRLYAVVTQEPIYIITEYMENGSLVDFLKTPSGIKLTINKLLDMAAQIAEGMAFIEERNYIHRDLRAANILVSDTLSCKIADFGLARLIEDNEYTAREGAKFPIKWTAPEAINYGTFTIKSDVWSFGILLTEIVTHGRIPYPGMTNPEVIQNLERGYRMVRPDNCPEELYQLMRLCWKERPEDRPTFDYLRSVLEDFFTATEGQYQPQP
Procedure: Figure 4B: FIG. 4(B) is a representative immunoblot, showing association of LAT with signaling molecules in 293T cells. FLAG-tagged LAT was cotransfected with pCEFL/HA-Grb2, pSRα/Grap-myc, pcDNA3/HA-p85 and pcDNA3/PLC-γ1 in the absence or presence of ZAP-70 and Lck PTKs. Brij lysates of transfected 293T cells were immunoprecipitated with anti-FLAG, and association of LAT with tested proteins was determined by blotting with specific antibodies.
In this example, association of LAT with Grb2, Grap, PI3K and PLC-γ1 is shown in 293T cells. To investigate the association of LAT with critical signaling molecules, FLAG-tagged LAT in the pcDNA3 vector was cotransfected in 293T cells with plasmids expressing HA-tagged Grb2, Myc-tagged Grap, HA-tagged p85 subunit of PI3K or PLC-γ1, in the presence or absence of both ZAP-70 and Lck. LAT was immunoprecipitated with anti-FLAG antibody, and associated proteins were detected by blotting with specific antibodies. […] When LAT and the two PTKs were coexpressed with HA-tagged Grb2, both endogenous Grb2 and HA-Grb2 bound to phosphorylated LAT (HA-Grb2 migrates more slowly than endogenous Grb2 on SDS-PAGE). Myc-tagged Grap, the Grb2-like protein, when coexpressed with LAT in the presence of the two PTKs, also associated with phosphorylated LAT. […] HA-tagged p85 or PLC-γ1 also associated with phosphorylated LAT. […]

Measured: binding result

T1 sequence (P27986 2-724): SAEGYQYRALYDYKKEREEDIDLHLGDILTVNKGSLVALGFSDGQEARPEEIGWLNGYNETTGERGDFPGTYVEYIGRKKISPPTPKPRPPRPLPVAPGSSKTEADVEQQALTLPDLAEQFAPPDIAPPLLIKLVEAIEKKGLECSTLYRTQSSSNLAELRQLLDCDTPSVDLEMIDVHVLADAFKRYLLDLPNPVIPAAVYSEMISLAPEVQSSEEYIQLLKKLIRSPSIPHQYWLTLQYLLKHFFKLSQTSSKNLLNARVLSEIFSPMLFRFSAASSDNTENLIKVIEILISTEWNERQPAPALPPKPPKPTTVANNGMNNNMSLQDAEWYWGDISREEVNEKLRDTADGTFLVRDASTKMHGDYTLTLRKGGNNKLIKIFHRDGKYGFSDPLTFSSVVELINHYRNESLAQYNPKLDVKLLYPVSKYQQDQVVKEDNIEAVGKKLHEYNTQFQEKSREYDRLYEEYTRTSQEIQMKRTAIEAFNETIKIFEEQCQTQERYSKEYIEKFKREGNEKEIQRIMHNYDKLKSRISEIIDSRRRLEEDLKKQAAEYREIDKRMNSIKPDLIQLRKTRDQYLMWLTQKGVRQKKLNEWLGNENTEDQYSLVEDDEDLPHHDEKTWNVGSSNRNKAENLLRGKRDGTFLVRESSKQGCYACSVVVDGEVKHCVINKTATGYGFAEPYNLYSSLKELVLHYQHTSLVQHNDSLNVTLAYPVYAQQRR

B1: myc-tagged mutant LAT (Y171/191F), stably expressed in Jurkat cells, C305 stimulated (other)
chain: MEEAILVPCVLGLLLLPILAMLMALCVHCHRLPGSYDSTSSDSLYPRGIQFKRPHTVAPWPPAYPPVTSYPPLSQPDLLPIPRSPQPLGGSHRTPSSRRDSDGANSVASYENEEPACEDADEDEDDYHNPGYLVVLPDSTPATSTAAPSAPALSTPGIRDSAFSMESIDDFVNVPESGESAEASLDGSREFVNVSQELHPGAAKTEPAALSSQEAEEVEEEGAPDYENLQELNSMEQKLISEEDLN
modifications: tyrosine phosphorylated upon stimulation at residues other than Y171 and Y191, less than WT
notes: also called mLAT
not listed: [6]
no binding: all other assays above

B2: FLAG-tagged LAT, tyrosine phosphorylated (co-expressed in 293T cells with Syk, or with ZAP-70 and Lck or Fyn) (other)
chain: MEEAILVPCVLGLLLLPILAMLMALCVHCHRLPGSYDSTSSDSLYPRGIQFKRPHTVAPWPPAYPPVTSYPPLSQPDLLPIPRSPQPLGGSHRTPSSRRDSDGANSVASYENEEPACEDADEDEDDYHNPGYLVVLPDSTPATSTAAPSAPALSTPGIRDSAFSMESIDDYVNVPESGESAEASLDGSREYVNVSQELHPGAAKTEPAALSSQEAEEVEEEGAPDYENLQELNDYKDDDDK
modifications: tyrosine phosphorylated by co-expressed PTKs; sites not mapped
notes: Made by replacing the Pst I/Cla I fragment of LAT with an oligonucleotide encoding FLAG; also called phosphorylated LAT
no binding: [6]
